From EP0733063B1
Where “and” joins values, the source holds several entries; their conditions need not be identical. Equal entries are not always repeated.

Columns and labels:
[1] = molecular target: purified monoclonal anti-hCG antibody (anti-hCG-A antibody, gift from Organon Technika); assay: ratio of affinity constants of hCG and of the oligopeptide for the antibody
[2] = molecular target: purified monoclonal anti-hCG antibody (anti-hCG-A antibody, gift from Organon Technika); assay: fluorescence anisotropy displacement, non-linear curve fitting by Equation (6), 6 C

fold higher binding affinity than the oligopeptide [1]: 300 fold and 500 fold
Ka [2]: 9.4e+09 M⁻¹
Substance: human chorionic gonadotrophin (hCG), highly purified, intact (from UniProt P01215 25-116; P0DN86 21-165) (ligand)
